In patent publication US20130149312A1, “COMPOSITIONS AND METHODS FOR TREATING COPD EXACERBATION” (MCMASTER UNIVERSITY, priority 2010, published 2013):

How the values were obtained:
[1] = target: T1, IL-1R1 (Mus musculus, UniProt P13504); assay: Acute tobacco smoke model of lung inflammation (BAL cells); type: in vivo; conditions: Balb/c mice; smoke twice daily; BAL day 5; 35F5/MAB005 15 mg/kg i.p. once daily; anakinra 48 mg/kg/day s.c. by ALZET pump
T1 construct: from tissue; host or cells: living Balb/c mice (lung / systemic), read-out BAL cell counts
T1 sequence (P13504 20-576): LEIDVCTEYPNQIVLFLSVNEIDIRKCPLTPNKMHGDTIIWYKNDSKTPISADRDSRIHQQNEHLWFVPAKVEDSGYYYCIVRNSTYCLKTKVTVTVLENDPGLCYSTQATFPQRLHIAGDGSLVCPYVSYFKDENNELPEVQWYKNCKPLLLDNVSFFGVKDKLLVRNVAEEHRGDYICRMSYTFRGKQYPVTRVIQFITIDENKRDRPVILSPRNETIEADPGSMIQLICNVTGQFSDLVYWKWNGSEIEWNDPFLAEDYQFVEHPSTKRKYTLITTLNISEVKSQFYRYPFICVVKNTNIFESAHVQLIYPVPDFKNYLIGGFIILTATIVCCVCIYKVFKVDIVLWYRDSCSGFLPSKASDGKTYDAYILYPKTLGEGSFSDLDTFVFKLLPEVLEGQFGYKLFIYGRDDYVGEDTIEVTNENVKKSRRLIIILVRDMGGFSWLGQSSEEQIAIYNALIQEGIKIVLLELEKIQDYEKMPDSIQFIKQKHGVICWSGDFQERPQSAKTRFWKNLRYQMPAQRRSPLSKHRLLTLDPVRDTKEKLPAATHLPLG
Description: The antibody 35F5 is a monoclonal antibody which binds to mouse IL-1R1 and prevents the binding of both IL-1beta and IL-1alpha to the receptor IL-1R1Anakinra antagonises the effects of both IL-1beta and IL-1alpha. […] The data shown in this example confirms that inhibition of IL-1R1 by 35F5 decreases inflammation in an acute model of murine lung inflammation, induced by a stimulus relevant to COPD such as smoke. This is consistent with previous observations in the public domain, and with other studies using IL-1Ra (anakinra; IL-1 receptor antagonist). In this mouse model, cigarette smoke causes significant increases in neutrophil BAL cell numbers after 4 days of smoke inhalation. To investigate the effects of IL-1R1 pathway inhibition on the acute inflammatory response to cigarette smoke inhalation, Balb/c mice were exposed to cigarette smoke twice daily (for 50 minutes) […] and dosed intraperitoneally once daily with either 35F5, isotype control rat IgG1 (MAB005), or saline, starting 48 hours before the first smoke exposure and continuing for 4 days. On Day 5, animals were terminated and BAL was performed. An additional treatment arm was included in which animals were exposed to cigarette smoke as above but dosed sub-cutaneously (SC) continuously with anakinra using infusion pumps (ALZET) starting dosing 48 hours prior to the first smoke exposure. […]

[2] = target: T1, IL-1R1; assay: IL-1beta-induced neutrophil mediated inflammation in the mouse lung (BAL); type: in vivo; conditions: Balb/c mice; anakinra subcutaneously 1 hour before IL-1beta 5 ng/50 μl intratracheally; BAL after 4 hours; vs control IL-1 treated animals
Method: As noted above, the effect of IL-1R1 antagonist treatment on an IL-1beta-induced neutrophil mediated inflammation in the mouse lung was also examined (FIG. 1B). Anakinra (KINERET™) was dosed subcutaneously one hour before a treatment of IL-1beta of 5 ng/50 μl. After four hours, cell counts were obtained by BAL. Anakinra reduced the cell count by 71% compared to control IL-1 treated animals.
Mice were adult Balb/c females. Anakinra was dosed subcutaneously one hour before IL-1beta was administered intratracheally to the mouse lung using a dose of 5 ng in 50 ul. After 4 hours, the lungs of the mouse were lavaged, essentially as for the acute smoke model (example 2), and total cells and differential cell counts performed.

[3] = target: T2, IL-1R (Homo sapiens, UniProt P14778); assay: Smoke conditioned medium induced IL-8 release in BEAS-2B cells; type: cell-based; conditions: 20% smoked medium, 24 hours
T2 sequence (P14778 18-569): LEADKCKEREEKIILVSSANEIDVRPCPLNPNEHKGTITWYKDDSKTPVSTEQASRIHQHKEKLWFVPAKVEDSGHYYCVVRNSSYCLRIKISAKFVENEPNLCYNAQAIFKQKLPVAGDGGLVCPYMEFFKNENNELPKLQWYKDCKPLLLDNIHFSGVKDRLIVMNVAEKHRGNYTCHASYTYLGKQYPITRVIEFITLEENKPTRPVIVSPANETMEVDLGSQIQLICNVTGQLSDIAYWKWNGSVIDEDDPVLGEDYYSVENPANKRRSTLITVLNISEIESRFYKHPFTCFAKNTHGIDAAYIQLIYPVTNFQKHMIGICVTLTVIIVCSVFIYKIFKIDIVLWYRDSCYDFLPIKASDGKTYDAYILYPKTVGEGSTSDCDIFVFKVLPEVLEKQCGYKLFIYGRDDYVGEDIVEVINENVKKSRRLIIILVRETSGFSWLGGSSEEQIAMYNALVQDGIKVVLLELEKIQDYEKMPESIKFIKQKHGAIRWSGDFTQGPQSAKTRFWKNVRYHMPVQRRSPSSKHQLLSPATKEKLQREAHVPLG
Method: (§1) The inflammatory response of epithelial cell in vitro was measured in response to smoke conditioned medium, or smoke conditioned medium and virus. The smoke conditioned medium was generated by bubbling cigarette smoke through tissue culture (TC) medium, and is referred to later in this example as ‘smoke’ or ‘smoke treatment’ of the cells. One cigarette with the filter removed bubbled through 25 mL medium is equal to 100% smoked medium. Cigarette smoke treated medium was titrated for IL-8 release and cell confluence on BEAS-2b cells. 20% smoked medium was used for all experiments as it induced pro-inflammatory cytokine release without significant cell death.
(§2) To examine the role of IL-1R in smoke and virus induced inflammation, cells were first smoke treated with a pre-treatment of IL-1R antagonist, and then as required, infected with HRV virus with another pre-treatment of IL-1R antagonist, anakinra. (FIGS. 10A and 10C).
(§3) A lit cigarette (no filter) was connected by tubing to a falcon tube (50 ml capacity) containing tissue culture medium which was supported in a glass flask. A peristaltic pump drew the smoke through the tubing and into the tissue culture medium. The waste smoke was drawn into a beaker of detergent. The whole procedure was performed within a fume cupboard to protect the operator and other users of the lab. The procedure was therefore not sterile. […]

[4] = target: T1, IL-1R1; assay: Inhaled LPS model of acute lung inflammation (BAL cells); type: in vivo; conditions: Balb/c mice; anakinra by ALZET osmotic pump from 48 hours before inhaled LPS; BAL 48 hours after challenge; vs control LPS treated mice; P<0.001
Description: Lipopolysaccharide (LPS) is a component of bacterial cell walls of gram negative bacteria. […] The effect of an IL-1R1 antagonist, anakinra, was examined in a mouse model of LPS mediated inflammatory cell influx into the lung. Anakinra inhibited LPS mediated inflammatory cell influx as measured by BAL total cells into the lung by 47% compared to control LPS treated mice (P<0.001) (FIG. 7).
Anakinra was delivered using an ALZET osmotic pump as described for acute smoke model, and was also administered to the mice 48 hours before the LPS administration. Mice were adult female Balb/c mice.
The mice were placed in a semi-open exposure inhalation box (max 10 mice) and were exposed once to aerosolised LPS—total inhalation session time 12 minutes. P. aeriginosa LPS was used at a concentration of 5 mg/ml and was aerosolised using a nebuliser (such as a PariStar Jet Star nebuliser), filled with 5 ml volume and flow from the nebuliser was 5 l/min (Pressure=2 bar). The control groups received the same procedure but with PBS. […] The BAL was then centrifuged—the cell pellet was analysed using standard automated cell counting and differential cell counting. […] The significance of differences between groups was calculated using Student's T test with one-tailed distribution and two-sample unequal variance. […]

[5] = target: T3, IL-1R1 (Homo sapiens, UniProt P14778); assay: HRV14-induced IL-8 release in BEAS-2b/H292 epithelial cells; conditions: BEAS-2b/H292 cells; PEG purified HRV14; anakinra 25 nM (FIG. 8B)
T3 sequence (P14778 18-569): T2 sequence (P14778 18-569)
Method: To investigate the role of IL-1 in human rhinovirus (HRV)-mediated inflammatory response, PEG purified HRV14 was used to infect BEAS-2b/H292 cells (human cells available from the ATCC) while those cells were being exposed to an IL-1R antagonist (FIG. 8A). […] A prototypic inflammatory mediator IL-8 (CXCL-1) was examined after treatment and HRV14 infection of the cells (FIG. 8). […] The concentration of anakinra used on the cells was 25 nM.
Cells used for epithelial smoke and virus work were BEAS-2B cells obtained from ATCC (catalogue number CRL-9609) and grown as per suppliers instructions, or H292s from ECACC (catalogue no 91091815 NCI-H292) also grown according to suppliers instructions. […]
Cells were seeded onto collagen coated flat clear bottomed plates and were incubated at 37° C. […] Anakinra or media was replaced onto cells in 100 ul and the virus was added 30 minutes later at a dilution determined by titres of virus stock on HeLa OHIO cells to determine equivalent activity for each batch made in an additional 100 ul . […]
IL-8 was measured in supernatants using ELISA kit (R&D Systems Duoset DY208) according to manufacturer's instructions and using R&D recombinant protein as standards for the assays.

[6] = target: T2, IL-1R; assay: Smoke plus HRV virus induced IL-8 release in BEAS-2B cells; type: cell-based; conditions: 20% smoked medium then HRV, different anakinra concentrations
Method: as §1, §2, §3

Substance: anakinra
- tobacco smoke-induced acute inflammatory cell infiltration in BAL [1]: significantly inhibited
- inhibition of IL-1beta-induced increase of neutrophils / cell count in BAL [2]: 71%
- smoke-induced IL-8 response [3]: dose dependent effect
- smoke-induced IL-8 response ([3]; listed as Anakinra): partial inhibition
- inhibition of LPS mediated inflammatory cell influx (BAL total cells) [4]: 47%
- IL-8 levels after HRV14 infection [5]: reduced
- combined smoke and virus IL-8 response [6]: Concentration dependent and complete inhibition
